Results on 10 molecules are retold here after patent US20110097340A1 (SCHERING, published 2011).

Substitutions are numbered along the chain they refer to.

The target in test [1] is T1, murine VEGF165 (murine, UniProt Q00731-2 27-190).
T1 construct: also called mVEGF165; rMu-VEGF165
T1 sequence (looked up): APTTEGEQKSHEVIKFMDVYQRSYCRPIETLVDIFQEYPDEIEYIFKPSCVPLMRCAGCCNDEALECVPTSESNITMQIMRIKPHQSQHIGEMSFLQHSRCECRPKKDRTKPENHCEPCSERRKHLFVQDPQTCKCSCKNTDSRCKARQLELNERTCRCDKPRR
In words: sandwich ELISA, antibody coated. The method, then: (§1) Mutants were transiently expressed in CHO-K1 cells, and cell supernatants were collected for binding analysis by ELISA.
(§2) The plate was blocked with 30% ChemiBlock™ reagent (Millipore) in PBS for one hour at room temperature, and 30, 60, or 100 μl of CHO-K1 culture supernatant for each mutant, or 1 μg/ml of wild-type hVEGF₁₂₁, recombinant hVEGF₁₆₅, or recombinant mVEGF₁₆₅, was added to appropriate wells. After one hour of incubation, the plate was washed and incubated with a biotinylated goat polyclonal anti-VEGF antibody for one hour at room temperature. Detection was performed with HRP-conjugated streptavidin, followed by TMB chromogenic substrate (Calbiochem) using manufacturer protocol.
In general terms: An ELISA detects its analyte on a solid surface through an enzyme-linked reagent.

A further test has as its target T2, wild-type hVEGF121 (human, UniProt P15692-9 27-147).
T2 sequence (looked up): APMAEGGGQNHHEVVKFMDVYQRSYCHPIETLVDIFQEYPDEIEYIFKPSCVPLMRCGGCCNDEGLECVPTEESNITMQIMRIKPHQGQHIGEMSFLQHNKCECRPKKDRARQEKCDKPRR
Briefly: sandwich ELISA, antibody coated. The method, then: as §1, §2

A further test addresses T3, hVEGF121-G92A (human, UniProt P15692-9 27-147, G92A).
T3 construct: Transiently expressed in CHO-K1 cells; culture supernatant used
T3 sequence (looked up): T2 sequence (looked up) with G92A
Briefly: sandwich ELISA, antibody coated. The protocol:
as §1, §2

The next test has as its target T4, hVEGF121-M81A (human, UniProt P15692-9 27-147).
T4 construct: Transiently expressed in CHO-K1 cells; culture supernatant used
T4 sequence (looked up): T2 sequence (looked up) with M81A
Briefly: sandwich ELISA, antibody coated. The protocol:
as §1, §2

Test [2] concerns the target T5, human VEGF165 (human, UniProt P15692 207-395). Briefly: sandwich ELISA, antibody coated. The method, then:
as §1, §2

The target in the next test is T6, hVEGF121-Q89A (human, UniProt P15692-9 27-147, Q89A).
T6 construct: Transiently expressed in CHO-K1 cells; culture supernatant used
T6 sequence (looked up): T2 sequence (looked up) with Q89A
In words: sandwich ELISA, antibody coated. The protocol: as §1, §2

Another test has as its target T7, hVEGF121-G88S (human, UniProt P15692-9 27-147, G88S).
T7 construct: Transiently expressed in CHO-K1 cells; culture supernatant used
T7 sequence (looked up): T2 sequence (looked up) with G88S
In words: sandwich ELISA, antibody coated. The method, then:
as §1, §2

For test [3], the target named is T5, human VEGF165. In words: cell-based or functional assay.
The target in test [4] is T5, human VEGF165. In words: Biacore (SPR). For orientation: SPR reads the build-up and loss of mass on a sensor chip optically.
Test [5] concerns the target T5, human VEGF165. Briefly: cell-based or functional assay. The source holds these as a separate data set.
Target sequence in this assay (P15692 other isoform, or with tags, fused parts or gaps limits assumed): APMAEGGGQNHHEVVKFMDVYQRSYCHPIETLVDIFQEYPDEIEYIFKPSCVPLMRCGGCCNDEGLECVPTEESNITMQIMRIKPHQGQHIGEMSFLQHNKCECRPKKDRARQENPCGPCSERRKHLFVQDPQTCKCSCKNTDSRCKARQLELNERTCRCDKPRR
The target in test [6] is T1, murine VEGF165. Briefly: Biacore 2000, mVEGF165 amine-coupled on C1 chip, antibody injected. The method, then:
(§3) The VEGF binding affinity of these IgGs was tested on a Biacore 2000® by injecting the antibodies over a very low density antigen surface. Human or murine VEGF₁₆₅ was immobilized via standard amine coupling methods to flow cells on a C1 (planar carboxy surface) chip. Approximately 85 RU of each antigen was immobilized and a reference flow cell was activated and blocked. Antibodies were injected over the chip surface for 400 seconds at two different concentrations, after which dissociation was monitored. Data was analyzed by Scrubber® using double referencing and fitting with a 1:1 interaction. Regenerations were performed with 90 mM HCl with 500 mM NaCl.

In test [7] the target is T5, human VEGF165. In words: Biacore 2000, hVEGF165 amine-coupled on C1 chip, antibody injected, 1:1 fit. The protocol: as §3
Target sequence in this assay (P15692 other isoform, or with tags, fused parts or gaps limits assumed): as above
For test [8], the target named is T5, human VEGF165. In words: ELISA on hVEGF165; XPA.10.064.06 after thermal stress without methionine. The protocol:
(§4) For chemical stress, the antibodies were incubated overnight at room temperature with 0.1% tBHP in the presence or absence of 5 mM L-methionine. For thermal stress, the antibodies were incubated in polysorbate for four weeks at 40° C. in the presence or absence of 5 mM L-methionine. The ability of the antibodies to bind hVEGF₁₆₅ was analyzed by Biacore and ELISA.

Test [9] concerns the target T5, human VEGF165. Briefly: ELISA on hVEGF165; XPA.10.064.06 after chemical stress (tBHP) without methionine. The method, then:
as §4

Test [10] addresses T5, human VEGF165. Briefly: ELISA on hVEGF165; XPA.10.064.06 after thermal stress in the presence of methionine. The protocol:
as §4

For test [11], the target named is T5, human VEGF165. In words: ELISA on hVEGF165; XPA.10.064.06 after chemical stress (tBHP) in the presence of methionine. The method, then:
as §4

Test [12] concerns the target T5, human VEGF165. Briefly: ELISA on hVEGF165; unstressed XPA.10.064.06.
In test [13] the target is T5, human VEGF165. In words: ELISA on hVEGF165; unstressed XPA.10.064.06. The source holds these as a separate data set.

Turning to “control polyclonal goat anti-human VEGF (antibody)”, the Raw data (ELISA signal) in the test with murine VEGF165 [1] came to 0.0939; in the test with wild-type hVEGF121 it was 2.56; in the test with hVEGF121-G92A, 2.18; in the test with hVEGF121-M81A it was 1.71; in the test with human VEGF165 [2], 2.45; with hVEGF121-Q89A it was 0.985. In the test with hVEGF121-G88S, this molecule had a Raw data (ELISA signal) of 0.769. Moreover, the fold binding over CHO background in the test with murine VEGF165 [1] worked out at 1 fold; with wild-type hVEGF121, 28 fold; with hVEGF121-G92A, 23.9 fold; with hVEGF121-M81A it was 18.8 fold; with human VEGF165 [2], 26.9 fold; with hVEGF121-Q89A it was 10.8 fold. In the test with hVEGF121-G88S, this molecule had a fold binding over CHO background of 8.4 fold.

B1: Bevacizumab (antibody, V domains shown)
VH: EVQLVESGGGLVQPGGSLRLSCAASGYTFTNYGMNWVRQAPGKGLEWVGWINTYTGEPTYAADFKRRFTFSLDTSKSTAYLQMNSLRAEDTAVYYCAKYPHYYGSSHWYFDVWGQGTLVTVSS
VL: DIQMTQSPSSLSASVGDRVTITCSASQDISNYLNWYQQKPGKAPKVLIYFTSSLHSGVPSRFSGSGSGTDFTLTISSLQPEDFATYYCQQYSTVPWTFGQGTKVEIK
As for B1, the “Raw data (ELISA signal)” value with murine VEGF165 [1] worked out at 0.0843.

B2: XPA.10.064 scFv-Fc (Fc fusion, part only; not given: linker, gamma-2 Fc, junction, not shown: another chain or arm of the molecule; a dimerising Fc or GST; small tags and cut ends)
VH: EVQLVQSGAEVRKPGASVKVSCKASGYSFTGHYIHWVRQAPGQGLEWMGWINPYSGGTNFPREFQGRVTMTRDTSVNTVYMELTRLTSDDTSVYYCARDHRIVGGLDYWGQGTLVTVSS
VL: SYVLTQPPSASGTPGQRVTISCSGSSSNIGINYVYWYQQLPGTAPKLLIYRNDQRPSGVPDRFSGSKSGTSASLAISGLRSEDEADYYCATWDDSLSGVVFGGGTKVTVL
As for B2, the HPP: sf21-hVEGF165, scFvFc (IC50) with human VEGF165 [3] came to 0.41 µg/mL.

B3: XPA.10.064 after oxidation with tert-butylhydroperoxide (antibody, V domains shown)
VH: B2 VH
VL: B2 VL
modifications: partial methionine oxidation after tBHP: Met-48 39%, Met-70 0%, Met-81 28%
notes: also called oxidized XPA.10.064
Turning to B3, the binding result with human VEGF165 [4] is “binds”.

B4: XPA.10.064.07 IgG2 (antibody, V domains shown)
VH: B2 VH with H100E, R101M, I102H
VL: B2 VL
notes: IgG2
Consider B4, for which the “HUVEC proliferation, geometric mean IC50” value in the test with human VEGF165 [5] is 129 pM. The Kd with murine VEGF165 [6] worked out at 130000 pM. In the test with human VEGF165 [7], this molecule came in with a Kd of 34.9 pM, a koff of 6.65e-06 s⁻¹ and a kon of 207000 M⁻¹ s⁻¹.

B5: XPA.10.064.06 after oxidation (chemical stress with tBHP or thermal stress) (antibody, V domains shown)
VH: B2 VH with H100E, R101M, I102T, V103R
VL: B2 VL
modifications: partial methionine oxidation; after tBHP: Met-48 20%, Met-70 0%, Met-81 14%, Met-101 66%; degree after thermal stress not given
notes: also called oxidized XPA.10.064.06
For B5, the “EC50 (read off the curve)” value with human VEGF165 [8] is approximately 0.01 µg/mL; with human VEGF165 [9], approximately 0.05 µg/mL; in the test with human VEGF165 [10], approximately 0.006 µg/mL; with human VEGF165 [11] it was approximately 0.02 µg/mL.

B6: XPA.10.064.10 IgG2 (antibody, V domains shown)
VH: B2 VH with H100E, R101M, I102V, V103W
VL: B2 VL
notes: IgG2
In the case of B6, in the test with human VEGF165 [5], the “HUVEC proliferation, geometric mean IC50” value was 139 pM. Also, in the test with human VEGF165 [7], the Kd came to 55.6 pM, the koff was found to be 1.16e-05 s⁻¹ and the kon came out at 216000 M⁻¹ s⁻¹.

B7: XPA.10.064.04 IgG2 (antibody, V domains shown)
VH: B2 VH with H100E, R101M, I102Q, V103N
VL: B2 VL
notes: IgG2
Consider B7, for which, in the test with human VEGF165 [7], the Kd came to 197 pM, the koff amounted to 2.94e-05 s⁻¹ and the kon stood at 150000 M⁻¹ s⁻¹.

B8: XPA.10.064.06 IgG2 (antibody, V domains shown)
VH: B2 VH with H100E, R101M, I102T, V103R
VL: B2 VL
notes: IgG2
Turning to B8, in the test with human VEGF165 [5], the “HUVEC proliferation, geometric mean IC50” value amounted to 173 pM. The same molecule registered a Kd with murine VEGF165 [6] of 208000 pM. Besides, the “EC50 (read off the curve)” value with human VEGF165 [12] was approximately 0.006 µg/mL. The “EC50 (read off the curve)” value in the test with human VEGF165 [13] was approximately 0.006 µg/mL. Also, in the test with human VEGF165 [7], the Kd was determined as 121 pM, the koff is 2.07e-05 s⁻¹ and the kon was determined as 178000 M⁻¹ s⁻¹.

B9: XPA.10.064.03 IgG2 (antibody, V domains shown)
VH: B2 VH with H100Q, R101M, I102V, V103H
VL: B2 VL
notes: IgG2
Turning to B9, the “HUVEC proliferation, geometric mean IC50” value in the test with human VEGF165 [5] was 174 pM. In the test with human VEGF165 [7], this molecule showed a dissociation constant Kd of 91.7 pM, a koff of 1.8e-05 s⁻¹ and a kon of 196000 M⁻¹ s⁻¹.

For orientation: Kd means the constant that tells how readily two partners part at equilibrium. Higher therefore signals weaker binding. A word on the koff: it is the first-order rate constant of dissociation. High values mean a short-lived complex, low ones a long-lived complex. Broadly, the kon is a measure of how fast the partners come together. High values mean fast association, low ones slow association. As a reminder, the EC50 (read off the curve) is the midpoint of the concentration-response curve.
